Laboratory results from the supplement of paper PMC10126150.
± gives the standard deviation of the averaged measurements.

test system: ATP; test: switch fluorescence ratio, 500 uM ATP over buffer (Cy3 cluster intensity, sum of 5 cycles each) (fold (ratio)); higher = stronger signal-on switching upon ATP binding; sequences stand for … in TCGTCGGCAGCGTCAGATGTGTATAAGAGACAGTTTTTTTTTTTTTTTTTTTTTTTTT…TC; details: aptamer strand: ATP DNA aptamer (quencher-CACCTGGGGGAGTATTGCGGAGGAAGG + anchor), 100 nM annealed; ATP concentration: 500 uM
Method in brief: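 Cy3-labelled switching-strand clusters on a modified Illumina MiSeq flow-cell were annealed to 100 nM quencher-labelled ATP aptamer, imaged in selection buffer, then imaged after 15 min with 500 uM ATP at 22 °C. Five buffer/ATP cycles ran, with NaOH stripping and re-annealing between them. The fluorescence ratio is summed target-cycle over summed buffer-cycle Cy3 intensity per cluster, averaged per switch-domain sequence. Clusters outside 100-1000 RFU were excluded.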
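Note: ATP exposure 15 min at 22 °C before imaging.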

Sequence	switch fluorescence ratio
ATATGCGTAT	1.01 ± 0.02
ATATGCTCAC	1.05 ± 0.03
ATATGGAGAT	0.98 ± 0.017
ATATGGATAA	1.01 ± 0.012
ATATGGGCTG	1.05 ± 0.1
ATATGGTAGT	1.03 ± 0.032
ATATGGTGCT	1.004 ± 0.0074
ATATGGTGGG	1.01 ± 0.025
ATATGTAGGT	0.998 ± 0.049
ATATGTATGG	0.968 ± 0.011
ATATGTGACT	0.977 ± 0.014
ATATGTGAGG	0.985 ± 0.0073
ATATGTGCCA	0.98 ± 0.02
ATATGTGGCG	0.932 ± 0.011
ATATGTGGGT	0.989 ± 0.038
ATATGTTGAA	1.02 ± 0.027
ATATGTTGAG	1 ± 0.017
ATATGTTTTT	0.996 ± 0.018
ATATTAGTTT	1 ± 0.011
ATATTATGAT	0.985 ± 0.03
ATATTATGGG	0.9979 ± 0.0095
ATATTCGGAA	0.99369 ± 0.00071
ATATTCGTTG	1.007 ± 0.0027
ATATTGAGGC	1.01 ± 0.038
ATATTGCTGG	0.9724 ± 0.0085

Sequence	switch fluorescence ratio
ATATTGGTGG	0.991 ± 0.042
ATATTTAATC	0.999 ± 0.0079
ATATTTAGCG	0.968 ± 0.016
ATATTTGATT	0.977 ± 0.021
ATATTTGGAG	0.9981 ± 0.003
ATATTTGGCC	0.974 ± 0.021
ATATTTTAAC	1 ± 0.012
ATATTTTGTG	0.982 ± 0.026
ATATTTTGTT	1.03 ± 0.066
ATATTTTTAT	0.987 ± 0.0082
ATATTTTTGG	0.993 ± 0.011
ATCAAAAACG	1.01 ± 0.029
ATCAAAAGAT	0.9811 ± 0.0085
ATCAAAGGGG	1 ± 0.0072
ATCAAATCGG	1.01 ± 0.025
ATCAAGGGGA	0.972 ± 0.028
ATCAATGGCA	0.975 ± 0.035
ATCAATGGGT	0.979 ± 0.025
ATCAATGTTC	1.07 ± 0.094
ATCAATTCGA	1.021 ± 0.0038
ATCAATTGAT	1.01 ± 0.052
ATCACATGAC	1.19 ± 0.016
ATCACATTCG	1.02 ± 0.043
ATCACGCGTA	1.02 ± 0.037
ATCACGGGCT	0.967 ± 0.027

Sequence	switch fluorescence ratio
ATCACTAGGA	1.04 ± 0.037
ATCACTCACT	1.18 ± 0.06
ATCACTCGTA	1.03 ± 0.043
ATCAGACTTG	1.023 ± 0.0012
ATCAGAGCTG	0.964 ± 0.032
ATCAGATGAA	0.999 ± 0.023
ATCAGATTGG	0.989 ± 0.0099
ATCAGGATGC	1.04 ± 0.063
ATCAGGCATT	1.03 ± 0.011
ATCAGGGACA	1.18 ± 0.017
ATCAGGGTAC	1.05 ± 0.04
ATCATAAGGT	1.02 ± 0.02
ATCATCCGTT	1.04 ± 0.025
ATCATGAGGT	0.97829 ± 0.00072
ATCATGCTTC	0.994 ± 0.025
ATCATGTGTT	0.994 ± 0.022
ATCATTCAAA	1.008 ± 0.0073
ATCATTCCTC	1.573 ± 0.011
ATCATTGGGC	0.988 ± 0.025
ATCATTGGTA	1 ± 0.023
ATCATTGTTA	1 ± 0.053
ATCCAAGATT	1 ± 0.019
ATCCAGTGTC	1.057 ± 0.0061
ATCCAGTGTG	1.89 ± 0.2
ATCCCCGGAG	1.33 ± 0.12

Sequence	switch fluorescence ratio
ATCCGAGCAT	4.654 ± 0.039
ATCCGGTTCG	0.9946 ± 0.0095
ATCCTAAGGC	1 ± 0.029
ATCCTGGGGT	1.01 ± 0.029
ATCCTTTGTG	1.02 ± 0.053
ATCGAAATGG	1 ± 0.024
ATCGAACCTT	1.55 ± 0.45
ATCGACTTTT	1.015 ± 0.003
ATCGAGAACG	0.993 ± 0.014
ATCGAGTGTG	1.01 ± 0.027
ATCGATGGGT	1.03 ± 0.047
ATCGCCTTGT	0.9943 ± 0.0024
ATCGCGGCCG	1.02 ± 0.04
ATCGCGTACT	1.19 ± 0.04
ATCGCTTAAG	0.991 ± 0.035
ATCGCTTAAT	1.03 ± 0.049
ATCGCTTGAG	0.9725 ± 0.0034
ATCGGAAAAA	1.02 ± 0.026
ATCGGAGGAA	1.17 ± 0.061
ATCGGATTGT	1.012 ± 0.007
ATCGGATTTC	1.02 ± 0.047
ATCGGCATTT	1.027 ± 0.0084
ATCGGCGATT	1.04 ± 0.024
ATCGGCGGGA	0.986 ± 0.01
ATCGGGGATT	1.01 ± 0.014

Sequence	switch fluorescence ratio
ATCGGGGGCC	0.973 ± 0.042
ATCGGGGGTG	0.982 ± 0.036
ATCGGGGTAT	0.992 ± 0.042
ATCGGGGTCG	1.05 ± 0.038
ATCGGGTGGG	1.001 ± 0.0075
ATCGGGTGTG	0.9871 ± 0.0015
ATCGGGTTGG	0.965 ± 0.018
ATCGGTATAT	1.02 ± 0.039
ATCGTCCCGA	1.05 ± 0.039
ATCGTGCACA	0.973 ± 0.036
ATCGTGGATT	0.969 ± 0.019
ATCGTGGGTT	0.97919 ± 0.00077
ATCGTGTAGG	0.99 ± 0.11
ATCGTGTATC	1.06 ± 0.0081
ATCGTTATTA	1.02 ± 0.018
ATCGTTCCGC	1.22 ± 0.03
ATCGTTGGG	1.01 ± 0.055
ATCGTTTCGT	1.02 ± 0.019
ATCGTTTGTT	1.04 ± 0.062
ATCGTTTTGA	0.989 ± 0.013
ATCGTTTTTA	1.001 ± 0.004
ATCTAAAAGG	1.01 ± 0.059
ATCTAAACGT	1.0574 ± 0.00082
ATCTAATTAG	0.963 ± 0.045
ATCTACCATG	1.03 ± 0.04

Sequence	switch fluorescence ratio
ATCTACGAAA	1.31 ± 0.03
ATCTAGAGGA	0.985 ± 0.023
ATCTAGGGGA	0.9995 ± 0.0066
ATCTAGGGGG	1.05 ± 0.017
ATCTAGGGTG	1.08 ± 0.012
ATCTAGTAGT	1.01 ± 0.013
ATCTATAGTG	0.9651 ± 0.0035
ATCTATGTGG	0.982 ± 0.035
ATCTCACAGA	0.989 ± 0.025
ATCTGAACGT	1.02 ± 0.074
ATCTGAAGGT	0.975 ± 0.031
ATCTGATAGC	0.955 ± 0.047
ATCTGATGTC	0.978 ± 0.018
ATCTGCCTTG	1 ± 0.019
ATCTGGGAGT	1.014 ± 0.00032
ATCTGGGGGG	1 ± 0.064
ATCTGTCTAT	0.98 ± 0.026
ATCTTAAATA	0.9918 ± 0.0058
ATCTTGGTCT	1.01 ± 0.045
ATCTTTTTGG	0.996 ± 0.024
ATGAAAGACC	1.0427 ± 0.00025
ATGAAAGGAT	1.014 ± 0.0042
ATGAAAGGGT	0.998 ± 0.023
ATGAAATCAG	0.9991 ± 0.0044
ATGAAGACTA	0.9962 ± 0.0014

Sequence	switch fluorescence ratio
ATGAAGGGAT	0.9969 ± 0.00076
ATGAAGGTCT	0.968 ± 0.02
ATGAAGTAGG	0.989 ± 0.013
ATGAAGTGAG	1.01 ± 0.027
ATGAATAAAT	1.012 ± 0.0058
ATGAATAGAG	1.02 ± 0.031
ATGAATGTAT	0.9855 ± 0.0062
ATGAATTAAA	0.992 ± 0.018
ATGAATTTTT	0.992 ± 0.042
ATGACATGGG	1.04 ± 0.025
ATGACGAAAA	1.04 ± 0.058
ATGACGCGGG	0.959 ± 0.023
ATGACGCTTT	1.02 ± 0.022
ATGACTGGAG	0.9896 ± 0.0076
ATGACTTGTA	0.987 ± 0.015
ATGAGAATAG	1.01 ± 0.0016
ATGAGATAGT	1.002 ± 0.0049
ATGAGCACAA	1.09 ± 0.017
ATGAGCATTC	1.18 ± 0.026
ATGAGGCGAA	1.01 ± 0.011
ATGAGGCTTT	1.02 ± 0.011
ATGAGGGCGG	0.98 ± 0.021
ATGAGGGTCC	1.1 ± 0.032
ATGAGGGTCG	0.993 ± 0.014
ATGAGGTTAC	0.988 ± 0.074

Sequence	switch fluorescence ratio
ATGAGTACGG	1.04 ± 0.03
ATGAGTAGGG	1.018 ± 0.0098
ATGAGTCATG	1.01 ± 0.028
ATGAGTCGGA	0.975 ± 0.055
ATGAGTGACC	1.02 ± 0.016
ATGAGTGGTG	1.019 ± 0.0077
ATGAGTTATT	1.01 ± 0.013
ATGAGTTGCG	0.977 ± 0.029
ATGATACTTC	0.9968 ± 0.0027
ATGATAGGGA	1.01 ± 0.063
ATGATAGTAC	1.04 ± 0.017
ATGATATGCA	1.017 ± 0.003
ATGATCCCGC	1.2 ± 0.019
ATGATCTTCG	1.038 ± 0.0053
ATGATGATAG	1.01 ± 0.02
ATGATGATGA	1.03 ± 0.02
ATGATGCTGG	1.02 ± 0.077
ATGATGTAAT	0.995 ± 0.051
ATGATTACGT	1.01 ± 0.03
ATGATTAGGA	0.987 ± 0.037
ATGATTATGG	1.02 ± 0.014
ATGATTGCGA	1.01 ± 0.061
ATGATTGGA	0.992 ± 0.015
ATGCAACGTC	0.989 ± 0.049
ATGCACAGAT	0.994 ± 0.027
